According to patent US20210061922A1 (published 2021):

Target: CD16a (UniProt P08637 17-208)
Assay: SPR

Sequence of CD16a (P08637 17-208): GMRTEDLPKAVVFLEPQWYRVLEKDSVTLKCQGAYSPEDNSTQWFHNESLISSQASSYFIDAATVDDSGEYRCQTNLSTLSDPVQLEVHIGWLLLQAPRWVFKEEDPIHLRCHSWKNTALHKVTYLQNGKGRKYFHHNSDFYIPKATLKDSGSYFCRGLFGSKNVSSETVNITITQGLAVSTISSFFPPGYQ

Kd: 2.6 nM
B1: Anti-CD16 nanobody (VHH)
VHH: EVQLTESGGEDVQAGGSLRLSCSASGLTFSSYNMGWFRRAPGKEREFVASITWSGRDTFYADSVKGRFTISRDNAKNTVYLQMSSLKPEDTATYYCAANPWPVAAPRSGTYWGEGTQVTV
